Experimental findings from patent publication US20120094909A1 (Bristol-Myers Squibb, published 2012) are described below.

The term EC50 denotes the concentration giving half of the maximal effect. Low values mean higher potency in that assay, high ones lower potency in that assay. In general, Kd refers to the free concentration of one partner at which half of the binding sites on the other are occupied at equilibrium, for simple one-to-one binding. As a reminder, the koff is the first-order rate constant of dissociation. One may read the kon as a measure of how fast the partners come together. A lower kon goes with slower complex formation.

In experiment [1] the target is T1, human PCSK9 (proprotein convertase subtilisin kexin type 9) (human, UniProt Q8NBP7 31-692).
T1 construct: immobilized directly (ProteOn), biotinylated (Octet) or in solution, according to the assay; also called hPCSK9; PCSK9-AF647 (labelled form)
The experiment can be described thus: PCSK9:EGFA FRET, competitor EGFA peptide.

The target in experiment [2] is T2, human PCSK9 (proprotein convertase subtilisin kexin type 9) (human, UniProt Q8NBP7 31-692).
T2 construct: Directly immobilized (SPR ProteOn), biotinylated (BLI), or in solution, depending on the assay; also called hPCSK9
In words: BLI, biotinylated hPCSK9 on sensor tips. As to the method: Tips were then immersed into a buffer-only well for observation of Adnectin dissociation. Experiments were performed in a temperature controlled environment at either 25 or 37° C., and the oscillation speed was set at 1500 rpm.
Binding interaction analysis was performed using proprietary software from Fortebio (Fortebio Data Analysis Software version 6.3.0.36). Global fits were performed for all samples, using a 1:1 binding model. The nature of these global fits constrained all values of concentration to a single pair of association and dissociation rates that were themselves constrained to each other. Affinities (KD), association and dissociation rates were averaged over the various loading levels used in the analysis.
Background: BLI is a label-free optical method that tracks binding on a fibre tip over time.

Experiment [3] concerns the target T1, human PCSK9 (proprotein convertase …). The experiment can be described thus: cell-based or functional assay.

Residue numbers refer to the chain shown, from its start. Numbers in names are those of the source. Bounds are passed on as bounds.

B1: 2451B06 (designed binder)
chain: MGVSDVPRDLEVVAATPTSLLISWDAPADGGYGYYRITYGETGGNSPVQEFTVPVSKGTATISGLKPGVDYTITVYAVEFDFPGAGYYHRPISINYRTEIDKPSQHHHHHH
Consider B1, for which, in experiment [1], the EC50 is 4.5 nM.

B2: ATI001114 (designed binder)
chain: MGVSDVPRDLEVVAATPTSLLISWVPPSDDYGYYRITYGETGGNSPVQEFTVPIGKGTATISGLKPGVDYTITVYAVEFPWPHAGYYHRPISINYRTGSGCHHHHHH
modifications: PEGylated on the cysteine of the C-terminal GSGC tail (two-branched 40 kDa PEG)
notes: PEGylated version of the 2013E01 Adnectin, His6-tagged; also called ATI1114
With B2, in experiment [2], the Kd is 4.88 nM, the koff turned out to be 0.000395 s⁻¹ and the kon came out at 80700 M⁻¹ s⁻¹.

B3: ATI001117 (designed binder)
chain: B2 chain with P27S, D29H, D30A, I54V, K56V, F79Y, P80A, W81F, P82E, H83G
modifications: PEGylated on the cysteine of the C-terminal tail (marked by asterisk in Table 5 as having been pegylated; PEG not specified)
notes: Anti-PCSK9 Adnectin, cysteine mutant of 2011H05, His6-tagged; also called 2011H05 Cys mut
In experiment [2], B3 came in with a Kd of 0.554 nM, a koff of 5.07e-05 s⁻¹ and a kon of 145000 M⁻¹ s⁻¹.

B4: ATI001119 (designed binder)
chain: MGVSDVPRDLEVVAATPTSLLISWRPPSNGHGYYRITYGETGGNSPVQEFTVPVNEGTATISGLKPGVDYTITVYAVEFPFKWSGYYHRPISINYRTGSGCHHHHHH
modifications: PEGylated on the cysteine of the C-terminal tail (marked by asterisk in Table 5 as having been pegylated; PEG not specified)
notes: Anti-PCSK9 Adnectin, cysteine mutant of 2012A04, His6-tagged; also called 2012A04 Cys mut
In experiment [2], B4 registered a dissociation constant Kd of 5.3 nM, a koff of 0.000445 s⁻¹ and an on-rate (kon) of 81900 M⁻¹ s⁻¹.

B5: 2382D08 (designed binder)
chain: MGVSDVPRDLEVVAATPTSLLISWDAPADGYGYYRITYGETGGNSPVQEFTVPVSKGTATISGLKPGVDYTITVYAVEFPFPGSGYYHRPISINYRTEIDKPSQHHHHHH
For B5, the EC50 in experiment [1] stood at 3.1 nM. Also, the “LDLR Depletion (% inhibition at 75 nM)” value in experiment [3] came to 107%.

B6: 1784F03-m2 (designed binder)
chain: B5 chain with D29H, G30A, V54G, F79Y, P80T, P82K, G83H
Turning to B6, the “LDLR Depletion EC50” value in experiment [3] is above 2000 nM.

B7: ATI001168 (designed binder)
chain: B5 chain with D25E, A26P, A28S, D29H, G30A, V54I, S55G, F79Y, F81W, P82K
In the case of B7, in experiment [2], binding was put at a Kd of 0.586 nM, the koff was determined as 0.000333 s⁻¹ and the kon was 583000 M⁻¹ s⁻¹.

B8: 2971A03 (designed binder)
chain: B5 chain with A26P, A28S, G30D, V54I, S55G, F81W, G83H, S84A
notes: Anti-PCSK9 Adnectin, His6-tagged
Turning to B8, in experiment [2], the Kd amounted to 0.806 nM, the koff was found to be 0.00042 s⁻¹ and the kon was 574000 M⁻¹ s⁻¹.

B9: 1784F03-m1 (designed binder)
chain: B5 chain with A28I, D29H, G30A, V54G, K56E, F79Y, P80T, P82K, G83H
Take B9: the “LDLR Depletion EC50” value in experiment [3] was above 2000 nM.

B10: ATI001175 (designed binder)
chain: B5 chain with A26P, A28S, D29H, G30A, V54I, S55G, F79Y, F81W, P82K
In experiment [2], B10 registered a Kd of 0.543 nM, a koff of 0.000352 s⁻¹ and a kon of 656000 M⁻¹ s⁻¹.

B11: 1784F03-m3 (designed binder)
chain: B5 chain with D29V, G30T, V54G, G57S, F79Y, P80T, P82K, G83H
Turning to B11, the “LDLR Depletion EC50” value in experiment [3] is above 2000 nM.

B12: 2382F08 (designed binder)
chain: B5 chain with D29E, G30A, P80T, F81Y
In experiment [1], B12 showed an EC50 of 2.5 nM. Moreover, the “LDLR Depletion (% inhibition at 75 nM)” value in experiment [3] turned out to be 105%.

B13: 2451G01 (designed binder)
chain: B5 chain with D29G, V54S, P80D
B13: in experiment [1], a half-maximal response (EC50) required 3.8 nM. For the same molecule, in experiment [3], the “LDLR Depletion (% inhibition at 75 nM)” value was determined as 90.8%.

B14: 2451F03 (designed binder)
chain: B5 chain with A26P, D29E, P80N
In turn, B14 came in with an EC50 in experiment [1] of 2.8 nM. Also, the “LDLR Depletion (% inhibition at 75 nM)” value in experiment [3] was 113%.

B15: 2382B11 (designed binder)
chain: B5 chain with D29A, G30A, F79Y, P80D, P82A
In experiment [1], B15 displayed an EC50 of 2.9 nM. In addition, the “LDLR Depletion (% inhibition at 75 nM)” value in experiment [3] was found to be 88.8%.

B16: 2451D05 (designed binder)
chain: B5 chain with D29G, G30A, P80D
In experiment [1], B16 yielded an EC50 of 2.8 nM. In addition, the “LDLR Depletion (% inhibition at 75 nM)” value in experiment [3] stood at 115%.

B17: 2451A02 (designed binder)
chain: B5 chain with D29A
Regarding B17, the EC50 in experiment [1] amounted to 3.2 nM. Further, the “LDLR Depletion (% inhibition at 75 nM)” value in experiment [3] was found to be 106%.

B18: 2451B05 (designed binder)
chain: B5 chain with D29G, V54S, P80D, F81Y
In turn, B18 registered an EC50 in experiment [1] of 6.3 nM. Moreover, the “LDLR Depletion (% inhibition at 75 nM)” value in experiment [3] was found to be 91.7%.

B19: 2971E02 (designed binder)
chain: B5 chain with A28S, G30D, V54I, S55G, F81W, G83H, S84A
notes: as for B8
Consider B19, for which, in experiment [2], the Kd was 1.78 nM, the off-rate constant (koff) worked out at 0.000555 s⁻¹ and the kon came out at 355000 M⁻¹ s⁻¹.

B20: 2451H01 (designed binder)
chain: B5 chain with D29A, F79Y, P80D
Consider B20, for which, in experiment [1], the midpoint of the response, the EC50, lay at 2.8 nM. In addition, in experiment [3], the “LDLR Depletion (% inhibition at 75 nM)” value came to 95.8%.

B21: 2382F09 (designed binder)
chain: B5 chain with D29A, G30A, F79Y, P80D
The molecule B21 yielded an EC50 in experiment [1] of 3.1 nM. For the same molecule, the “LDLR Depletion (% inhibition at 75 nM)” value in experiment [3] came to 110%.

B22: 2382E09 (designed binder)
chain: B5 chain with D29E, G30A, F79Y, P80D
B22: the EC50 in experiment [1] worked out at 6.2 nM. Further, in experiment [3], the “LDLR Depletion (% inhibition at 75 nM)” value amounted to 97.2%.

B23: 2382H11 (designed binder)
chain: B5 chain with S55F, P80D, F81Y
For the molecule B23, the EC50 in experiment [1] worked out at 2.9 nM. The “LDLR Depletion (% inhibition at 75 nM)” value in experiment [3] came to 117%.

B24: 2382H07 (designed binder)
chain: B5 chain with G30A, V54G, P80D
Turning to B24, the EC50 in experiment [1] is 2.7 nM. Moreover, the “LDLR Depletion (% inhibition at 75 nM)” value in experiment [3] worked out at 86.2%.

B25: 2382C11 (designed binder)
chain: B5 chain with D29G, F79Y, P80D, P82A
For the molecule B25, the response in experiment [1] was half-maximal at 3.7 nM (EC50). Further, the “LDLR Depletion (% inhibition at 75 nM)” value in experiment [3] came out at 82.9%.

B26: 2451B02 (designed binder)
chain: B5 chain with D29A, G30A, P80D, F81Y
Regarding B26, in experiment [1], the midpoint of the response, the EC50, lay at 5.3 nM. Further, the “LDLR Depletion (% inhibition at 75 nM)” value in experiment [3] stood at 71.4%.

B27: 2382B08 (designed binder)
chain: B5 chain with G30A, V54S, P80A, S84A
Turning to B27, the EC50 in experiment [1] stood at 2.9 nM. The “LDLR Depletion (% inhibition at 75 nM)” value in experiment [3] came to 107%.

B28: 2011H05(V23E) (designed binder)
chain: MGVSDVPRDLEVVAATPTSLLISWEPSSHAYGYYRITYGETGGNSPVQEFTVPVGVGTATISGLKPGVDYTITVYAVEYAFEGAGYYHRPISINYRTEIDKPSQHHHHHH
B28 yielded an EC50 in experiment [1] of 7.4 nM. The “LDLR Depletion EC50” value in experiment [3] was found to be 12 nM.

B29: 2011B11 (designed binder)
chain: B28 chain with E25A, S27P, H29D, V54I, V56K, A80P, F81Y, E82S, G83H
For B29, in experiment [1], it took 1.7 nM to reach a half-maximal effect (EC50). In experiment [3], the “LDLR Depletion (% inhibition at 75 nM)” value was found to be 144%.

B30: 2011H05(V23D) (designed binder)
chain: B28 chain with E25D
B30 yielded an EC50 in experiment [1] of 5.5 nM. For the same molecule, in experiment [3], the “LDLR Depletion EC50” value amounted to 18 nM.

B31: 2971A09 (designed binder)
chain: B5 chain with G30D, V54I, S55G, F81W, G83H, S84A
notes: as for B8
In experiment [2], B31 registered a Kd of 2.79 nM, a koff of 0.00105 s⁻¹ and a kon of 399000 M⁻¹ s⁻¹.

B32: 1923B02(N82I) (designed binder)
chain: MGVSDVPRDLEVVAATPTSLLISWTPPPKGYGYYRITYGETGGNSPVQEFTVPVGEGTATISGLKPGVDYTITVYAVEYTYIGAGYYHRPISINYRTGSGSHHHHHH
With B32, the “LDLR Depletion EC50” value in experiment [3] was found to be 14 nM.

B33: 1922G04(R25D) (designed binder)
chain: B2 chain with V25D, D29H, D30A, F79Y, P82K, H83G, A84S, C101S
B33: the EC50 in experiment [1] was determined as 2.5 nM. The “LDLR Depletion EC50” value in experiment [3] was 29 nM.

B34: 1923B02(T80A) (designed binder)
chain: B32 chain with T80A, I82N
For B34, the “LDLR Depletion EC50” value in experiment [3] is 42 nM.

B35: 1922G04(R25S) (designed binder)
chain: B2 chain with V25S, D29H, D30A, F79Y, P82K, H83G, A84S, C101S
Consider B35, for which the “LDLR Depletion EC50” value in experiment [3] stood at 21 nM.

B36: 1923B02(N82E) (designed binder)
chain: B32 chain with I82E
As for B36, in experiment [3], the “LDLR Depletion EC50” value came out at 28 nM.

B37: 1922G04(R25E) (designed binder)
chain: B2 chain with V25E, D29H, D30A, F79Y, P82K, H83G, A84S, C101S
Take B37: in experiment [1], the EC50 stood at 3.5 nM. Besides, in experiment [3], the “LDLR Depletion EC50” value came out at 29 nM.
